# ± gives the uncertainty stated by the source.
# B1: RNA-binding E3 ubiquitin-protein ligase MEX3C, residues 325 to 391; numbered along this chain, Q5U5Q3 (parent)
# chain: GQTTVQVRVPYRVVGLVVGPKGATIKRIQQQTHTYIVTPSRDKEPVFEVTGMPENVDRAREEIEMHI
# Variants of: B1
# Assay: abundance fitness (aPCA) (normalised: wild type 0, dead -1); higher = more abundant; growth selection in yeast, the domain comes from the species named
# Settings: Homo sapiens
row,Variant,abundance fitness
1,GQTTVQVRVPYRVVGLHVGPKGATIKRIQQQTHTYIVTPSRDKEPVFEVTGMPENVDRAREEIEMHI,-0.149 ± 0.13
2,GQTTVQVRVPYRVVGLFVGPKGATIKRIQQQTHTYIVTPSRDKEPVFEVTGMPENVDRAREEIEMHI,-0.711 ± 0.17
3,GQTTVQVRVPYRVVGLEVGPKGATIKRIQQQTHTYIVTPSRDKEPVFEVTGMPENVDRAREEIEMHI,-0.537 ± 0.085
4,GQTTVQVRVPYRVVGLDVGPKGATIKRIQQQTHTYIVTPSRDKEPVFEVTGMPENVDRAREEIEMHI,-0.702 ± 0.14
5,GQTTVQVRVPYRVVGLAVGPKGATIKRIQQQTHTYIVTPSRDKEPVFEVTGMPENVDRAREEIEMHI,-0.436 ± 0.076
6,GQTTVQVRVPYRVVGLIVGPKGATIKRIQQQTHTYIVTPSRDKEPVFEVTGMPENVDRAREEIEMHI,0.013 ± 0.099
7,GQTTVQVRVPYRVVGKVVGPKGATIKRIQQQTHTYIVTPSRDKEPVFEVTGMPENVDRAREEIEMHI,-0.192 ± 0.089
8,GQTTVQVRVPYRVVGWVVGPKGATIKRIQQQTHTYIVTPSRDKEPVFEVTGMPENVDRAREEIEMHI,-0.122 ± 0.07
9,GQTTVQVRVPYRVVGFVVGPKGATIKRIQQQTHTYIVTPSRDKEPVFEVTGMPENVDRAREEIEMHI,-0.139 ± 0.14
10,GQTTVQVRVPYRVVGQVVGPKGATIKRIQQQTHTYIVTPSRDKEPVFEVTGMPENVDRAREEIEMHI,0.034 ± 0.073
11,GQTTVQVRVPYRVVGMVVGPKGATIKRIQQQTHTYIVTPSRDKEPVFEVTGMPENVDRAREEIEMHI,0.316 ± 0.1
12,GQTTVQVRVPYRVVGAVVGPKGATIKRIQQQTHTYIVTPSRDKEPVFEVTGMPENVDRAREEIEMHI,-0.052 ± 0.059
13,GQTTVQVRVPYRVVGIVVGPKGATIKRIQQQTHTYIVTPSRDKEPVFEVTGMPENVDRAREEIEMHI,-0.174 ± 0.12
14,GQTTVQVRVPYRVVGTVVGPKGATIKRIQQQTHTYIVTPSRDKEPVFEVTGMPENVDRAREEIEMHI,-0.095 ± 0.07
15,GQTTVQVRVPYRVVGPVVGPKGATIKRIQQQTHTYIVTPSRDKEPVFEVTGMPENVDRAREEIEMHI,-0.615 ± 0.14
16,GQTTVQVRVPYRVVGHVVGPKGATIKRIQQQTHTYIVTPSRDKEPVFEVTGMPENVDRAREEIEMHI,-0.047 ± 0.086
17,GQTTVQVRVPYRVVGYVVGPKGATIKRIQQQTHTYIVTPSRDKEPVFEVTGMPENVDRAREEIEMHI,-0.228 ± 0.13
18,GQTTVQVRVPYRVVGVVVGPKGATIKRIQQQTHTYIVTPSRDKEPVFEVTGMPENVDRAREEIEMHI,-0.353 ± 0.058
19,GQTTVQVRVPYRVVGDVVGPKGATIKRIQQQTHTYIVTPSRDKEPVFEVTGMPENVDRAREEIEMHI,-0.058 ± 0.072
20,GQTTVQVRVPYRVVGEVVGPKGATIKRIQQQTHTYIVTPSRDKEPVFEVTGMPENVDRAREEIEMHI,-0.133 ± 0.065

row,Variant,abundance fitness
1,GQTTVQVRVPYRVVGGVVGPKGATIKRIQQQTHTYIVTPSRDKEPVFEVTGMPENVDRAREEIEMHI,-0.506 ± 0.064
2,GQTTVQVRVPYRVVGNVVGPKGATIKRIQQQTHTYIVTPSRDKEPVFEVTGMPENVDRAREEIEMHI,-0.312 ± 0.14
3,GQTTVQVRVPYRVVGCVVGPKGATIKRIQQQTHTYIVTPSRDKEPVFEVTGMPENVDRAREEIEMHI,-0.213 ± 0.087
4,GQTTVQVRVPYRVVGRVVGPKGATIKRIQQQTHTYIVTPSRDKEPVFEVTGMPENVDRAREEIEMHI,0.075 ± 0.045
5,GQTTVQVRVPYRVVNLVVGPKGATIKRIQQQTHTYIVTPSRDKEPVFEVTGMPENVDRAREEIEMHI,-0.234 ± 0.17
6,GQTTVQVRVPYRVVQLVVGPKGATIKRIQQQTHTYIVTPSRDKEPVFEVTGMPENVDRAREEIEMHI,-0.181 ± 0.087
7,GQTTVQVRVPYRVVHLVVGPKGATIKRIQQQTHTYIVTPSRDKEPVFEVTGMPENVDRAREEIEMHI,-0.059 ± 0.086
8,GQTTVQVRVPYRVVWLVVGPKGATIKRIQQQTHTYIVTPSRDKEPVFEVTGMPENVDRAREEIEMHI,-0.779 ± 0.14
9,GQTTVQVRVPYRVVYLVVGPKGATIKRIQQQTHTYIVTPSRDKEPVFEVTGMPENVDRAREEIEMHI,-0.691 ± 0.21
10,GQTTVQVRVPYRVVRLVVGPKGATIKRIQQQTHTYIVTPSRDKEPVFEVTGMPENVDRAREEIEMHI,-0.212 ± 0.052
11,GQTTVQVRVPYRVVELVVGPKGATIKRIQQQTHTYIVTPSRDKEPVFEVTGMPENVDRAREEIEMHI,-0.121 ± 0.068
12,GQTTVQVRVPYRVVDLVVGPKGATIKRIQQQTHTYIVTPSRDKEPVFEVTGMPENVDRAREEIEMHI,0.018 ± 0.077
13,GQTTVQVRVPYRVVPLVVGPKGATIKRIQQQTHTYIVTPSRDKEPVFEVTGMPENVDRAREEIEMHI,-0.093 ± 0.077
14,GQTTVQVRVPYRVVILVVGPKGATIKRIQQQTHTYIVTPSRDKEPVFEVTGMPENVDRAREEIEMHI,-0.872 ± 0.42
15,GQTTVQVRVPYRVVVLVVGPKGATIKRIQQQTHTYIVTPSRDKEPVFEVTGMPENVDRAREEIEMHI,-0.986 ± 0.14
16,GQTTVQVRVPYRVVKLVVGPKGATIKRIQQQTHTYIVTPSRDKEPVFEVTGMPENVDRAREEIEMHI,-0.235 ± 0.076
17,GQTTVQVRVPYRVVMLVVGPKGATIKRIQQQTHTYIVTPSRDKEPVFEVTGMPENVDRAREEIEMHI,-0.459 ± 0.12
18,GQTTVQVRVPYRVVCLVVGPKGATIKRIQQQTHTYIVTPSRDKEPVFEVTGMPENVDRAREEIEMHI,-0.59 ± 0.19
19,GQTTVQVRVPYRVVSLVVGPKGATIKRIQQQTHTYIVTPSRDKEPVFEVTGMPENVDRAREEIEMHI,-0.128 ± 0.062
20,GQTTVQVRVPYRVVALVVGPKGATIKRIQQQTHTYIVTPSRDKEPVFEVTGMPENVDRAREEIEMHI,-0.067 ± 0.051
